Data from patent US20250277050A1 (published 2025).
Residue numbers refer to the chain shown, from its start.

T1: human CD30 expressed on the cell surface (human, UniProt P28908 19-595)
T1 chain: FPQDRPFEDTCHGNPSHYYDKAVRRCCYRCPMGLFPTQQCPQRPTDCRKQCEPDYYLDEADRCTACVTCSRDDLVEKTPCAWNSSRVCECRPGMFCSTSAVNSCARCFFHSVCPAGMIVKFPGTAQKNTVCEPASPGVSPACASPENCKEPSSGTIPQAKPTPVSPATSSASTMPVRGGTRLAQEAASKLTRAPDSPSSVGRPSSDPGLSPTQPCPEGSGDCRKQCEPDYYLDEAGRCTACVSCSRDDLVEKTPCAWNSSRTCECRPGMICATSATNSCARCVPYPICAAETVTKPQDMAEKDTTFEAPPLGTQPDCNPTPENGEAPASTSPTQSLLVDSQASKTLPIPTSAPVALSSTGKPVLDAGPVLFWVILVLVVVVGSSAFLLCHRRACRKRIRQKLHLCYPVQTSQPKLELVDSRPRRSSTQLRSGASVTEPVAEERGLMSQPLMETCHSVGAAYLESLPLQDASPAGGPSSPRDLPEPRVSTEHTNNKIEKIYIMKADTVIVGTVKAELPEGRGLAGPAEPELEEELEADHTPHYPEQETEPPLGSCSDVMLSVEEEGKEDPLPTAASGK

B1: 10C2 (antibody, V domains shown)
VH: QVQLEQSGPVLVKPGASVKMSCKASGYTFTDYYMNWVKQSHGKSLEWIGVINPYNGGTSYNQKFKGKATLTVDKSSSTACMELNCLTSEDSAVYYCTLGAYWGQGTSVTVSS
VL: not shown
B2: 12B1 (antibody, V domains shown)
VH: EVKLEESGTELVKPGASVKLSCKASGYTFTSYWMHWVKQRPGQGLEWIGNINPTNGGTNYNEKFKSKATLTVDKSSRTAYMQLSSLTSGDSAVYYCARRDFITTSGFAYWGQGTLVTVSA
VL: DIVMTQTTASLSTSVGETVTITCRASGNLHSYLTWYQQKQGKSPQLLVYNAKTLADGVPSRFSGSGSGTQYSLKIDSLQPEDFGSYYCQHFWTTPFTFGSGTKLEIK
B3: 15B8 (antibody, V domains shown)
VH: QVQLEQSGTELVKPGASVKLSCKASGYTFTSYWMHWVKQRPGQGLEWIGNINPSNGGTNYNEKFKSKATLTVDKSSSTAYMQLSSLTSEDSAIYYCARRNNYYASSPFAYWGQGTLVSVSA
VL: B2 VL with T8P, T13A, L29I, S31N, T34A, D76N, T93S
B4: 8D10 (antibody, V domains shown)
VH: QVQLQESGTELVKPGASVKLSCKASGYTFTSYWMHWMKQRPGQGLEWIGNINPSNGGTNYNEKFKNKATLTVDKSSSTAYMQLSSLTSEDSAVYYCARRDYYYGSSYGFDVWGTGTTVTVSS
VL: DIVMTQSPASQSASLGESVTITCLASQTIGTWLAWYQQKPGKSPQFLIYAATSLADGVPSRFSGSGSGTKFSFKISSLQAEDFVSYYCQQLYSTPFTFGGGTKLEIK
B5: 13H1 (antibody, V domains shown)
VH: QVQLQQSGTELVKPGASVKLSCKASGHTFTSYWMHWVKQRPGQGLEWIGNINPSNGGTNYNEKFKSKATLTVDKSSSTAYMQLSSLTSEDSAVYYCARRGYYGSSSYWSFDVWGTGTTVTVSS
VL: DIVMTQTPKSMSMSVGERVTLSCKASENVGTYVSWYQQKPEQSPKVLIYGASNRFTGVPDRFTGSGSATDFTLTISSVQTEDLADYHCGQSYSYPLTFGAGTKLELK

Biological target: T1, human CD30 expressed on the cell surface
Assay: SPR; CD30 immobilized on CM5 chip, antibody as analyte

Binder | Ka [M⁻¹]
B1 | 1.65e+09
B2 | 5.02e+09
B3 | 1.02e+09
B4 | 1.69e+10
B5 | 6.7e+09

Biological target: T1, human CD30 expressed on the cell surface
Assay: as above
Remark: another data set of the same source

Binder | Kd [nM]
B1 | 0.607
B2 | 0.199
B3 | 0.978
B4 | 0.0592
B5 | 0.149

Biological target: T1, human CD30 expressed on the cell surface
Assay: SPR; antibody immobilized on Protein G chip, CD30 as analyte

Binder | Kd [nM]
B1 | 1.76
B4 | 1.14
